The target of experiment [1] is T1, mouse BMP receptor kinase protein m-BRK-3 (mouse), O35607.
T1 chain: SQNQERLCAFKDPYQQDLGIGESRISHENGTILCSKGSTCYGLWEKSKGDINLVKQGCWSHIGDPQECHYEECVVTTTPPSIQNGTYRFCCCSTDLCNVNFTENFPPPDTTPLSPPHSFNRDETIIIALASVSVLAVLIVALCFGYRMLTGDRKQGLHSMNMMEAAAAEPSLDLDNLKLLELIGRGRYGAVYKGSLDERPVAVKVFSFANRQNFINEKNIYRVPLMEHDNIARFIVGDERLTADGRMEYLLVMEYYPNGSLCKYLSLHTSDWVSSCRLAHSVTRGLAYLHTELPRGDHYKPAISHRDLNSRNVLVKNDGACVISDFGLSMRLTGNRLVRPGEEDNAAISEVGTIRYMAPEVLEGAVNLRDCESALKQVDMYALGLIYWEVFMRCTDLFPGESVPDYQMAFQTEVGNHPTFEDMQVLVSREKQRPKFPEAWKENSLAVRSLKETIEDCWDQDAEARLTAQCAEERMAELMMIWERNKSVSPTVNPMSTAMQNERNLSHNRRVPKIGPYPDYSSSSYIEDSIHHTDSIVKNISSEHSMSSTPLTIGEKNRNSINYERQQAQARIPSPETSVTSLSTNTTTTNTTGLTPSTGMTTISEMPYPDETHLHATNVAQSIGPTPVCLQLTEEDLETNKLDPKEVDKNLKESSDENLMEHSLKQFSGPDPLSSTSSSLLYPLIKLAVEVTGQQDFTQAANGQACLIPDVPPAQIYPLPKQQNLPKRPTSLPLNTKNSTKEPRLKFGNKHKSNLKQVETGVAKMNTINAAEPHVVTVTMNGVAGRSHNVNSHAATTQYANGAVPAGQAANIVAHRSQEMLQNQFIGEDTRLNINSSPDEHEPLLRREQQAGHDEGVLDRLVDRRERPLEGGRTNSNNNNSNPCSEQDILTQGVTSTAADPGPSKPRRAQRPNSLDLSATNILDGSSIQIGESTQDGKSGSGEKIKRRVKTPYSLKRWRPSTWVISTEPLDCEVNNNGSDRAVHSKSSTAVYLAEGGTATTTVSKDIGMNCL
As to the kind of experiment: whole cell binding of radiolabeled ligand, COS-1 cells transfected with pJT6-mBRK-3S or pJT6-mBRK-3L. To be noted: remark: other sources report otherwise; scale: times the level seen with mock transfected cells.

Experiment [2] addresses T2, BRK-2 co-expressed with t-BRK-3 (BRK-2/t-BRK-3 complex) (chicken; human, UniProt Q05438 14-502; Q13873 27-540).
T2 construct: Both receptors co-transfected into COS cells; also called BRK-2 and BRK-3 receptor complex; BRK-2 plus t-BRK-3
As to the kind of experiment: competition, 10 nM unlabeled ligand against [^125I]-BMP-4; crosslinking and immunoprecipitation with antiserum 1380.
Protocol: Following the crosslinking, cells are washed three times with ice-cold PBS, then lysed with 1 ml of RIP buffer (20 mM TrisCl, pH 8.0, 100 mM NaCl, 1 mM Na_2EDTA, 0.5% Nonidet P-40, 0.5% sodium deoxycholate, 10 mM sodium iodide, and 1% bovine serum albumin) for 10 min. The lysate is centrifuged in a microcentrifuge at 13,000 rpm for 10 min at 4° C. The supernatant is transferred to a fresh tube and made 0.1% in SDS. To remove any existing antibody present in the lysate, 50 µl of PANSORBIN (Calbiochem, La Jolla, Calif.; a 10% solution of *Staphylococcus aureus*) is added. After a 30 minute incubation at 4° C., the lysate is centrifuged as before, and the supernatant again transferred to a fresh tube.
To precipitate the complex of antigen:primary antibody, 25–50 µl of PANSORBIN is then added and incubated 30 min on ice. The complex is pelleted at 13,000 rpm for 10 min in a microcentrifuge and the supernatant discarded. The pellet is washed twice in RIP buffer containing 0.1% SDS, and once in TNEN buffer (20 mM Tris, pH 8.0, 100 mM NaCl, 1 mM EDTA, 0.5% NP-40). The pellet is resuspended in 25 µl of 1× sample loading buffer. (Alternatively, the pellet may be washed twice with TNEN buffer, with similar results.) The sample is boiled for 5 min, centrifuged for 5 min, and subjected to gel electrophoresis after loading of the samples onto a 7.5% SDS-polyacrylamide gel.

T2 sequence (Q05438 14-502 limits assumed, one chain of several): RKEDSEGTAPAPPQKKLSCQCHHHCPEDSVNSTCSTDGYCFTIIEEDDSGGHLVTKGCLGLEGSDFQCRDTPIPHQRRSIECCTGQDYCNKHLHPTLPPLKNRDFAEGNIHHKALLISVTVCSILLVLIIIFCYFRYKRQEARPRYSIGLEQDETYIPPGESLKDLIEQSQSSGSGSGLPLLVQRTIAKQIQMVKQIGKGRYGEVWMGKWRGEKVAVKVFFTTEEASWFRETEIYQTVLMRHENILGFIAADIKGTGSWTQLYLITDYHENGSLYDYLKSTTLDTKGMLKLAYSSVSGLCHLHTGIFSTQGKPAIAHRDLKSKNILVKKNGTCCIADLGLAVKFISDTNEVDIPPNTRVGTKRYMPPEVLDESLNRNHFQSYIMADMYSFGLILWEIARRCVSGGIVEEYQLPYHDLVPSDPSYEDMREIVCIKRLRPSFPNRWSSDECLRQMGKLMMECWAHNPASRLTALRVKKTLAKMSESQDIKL

B1: bone morphogenetic protein 4, P12644 293-408 (ligand, UniProt P12644 293-408, looked up)
chain: SPKHHSQRARKKNKNCRRHSLYVDFSDVGWNDWIVAPPGYQAFYCHGDCPFPLADHLNSTNHAIVQTLVNSVNSSIPKACCVPTELSAISMLYLDEYDKVVLKNYQEMVVEGCGCR
modifications: here or on the partner: 125I-labelled when used as tracer ([^125I]-BMP-4; IODOBEADS or chloramine-T method); unlabeled when used as competitor
With B1, the specific binding of [^125I]-BMP-4 relative to mock transfected cells in experiment [1] lay within 4 to 7.

B2: bone morphogenetic protein 2 (ligand, UniProt P12643 283-396, looked up)
chain: QAKHKQRKRLKSSCKRHPLYVDFSDVGWNDWIVAPPGYHAFYCHGECPFPLADHLNSTNHAIVQTLVNSVNSKIPKACCVPTELSAISMLYLDENEKVVLKNYQDMVVEGCGCR
notes: also called BMP-2
In the case of B2, in experiment [2], the binding result is on record as “binds”.
